Source: the supplement of paper PMC9876800

System: peptide library, one residue held at a place counted from the S/T acceptor
Experiment: relative phosphorylation of the sub-library (ratio to the mean residue at this position); higher = residue favoured
Conditions: human
In short: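 Purified recombinant kinases were reacted in 384-well plates with biotinylated degenerate peptide sub-libraries, each having one residue fixed at one position around a central Ser/Thr. The reaction mix contained 50 μM peptide plus 50 μM ATP spiked with γ-32P-ATP and ran for 90 min under kinase-specific conditions. Relative sub-library phosphorylation, taken from densitometry of phosphorimaged streptavidin membrane spots, is a ratio to the mean residue at that position.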

Sequence of GRK6, construct: Full length (P43250 whole entry, looked up): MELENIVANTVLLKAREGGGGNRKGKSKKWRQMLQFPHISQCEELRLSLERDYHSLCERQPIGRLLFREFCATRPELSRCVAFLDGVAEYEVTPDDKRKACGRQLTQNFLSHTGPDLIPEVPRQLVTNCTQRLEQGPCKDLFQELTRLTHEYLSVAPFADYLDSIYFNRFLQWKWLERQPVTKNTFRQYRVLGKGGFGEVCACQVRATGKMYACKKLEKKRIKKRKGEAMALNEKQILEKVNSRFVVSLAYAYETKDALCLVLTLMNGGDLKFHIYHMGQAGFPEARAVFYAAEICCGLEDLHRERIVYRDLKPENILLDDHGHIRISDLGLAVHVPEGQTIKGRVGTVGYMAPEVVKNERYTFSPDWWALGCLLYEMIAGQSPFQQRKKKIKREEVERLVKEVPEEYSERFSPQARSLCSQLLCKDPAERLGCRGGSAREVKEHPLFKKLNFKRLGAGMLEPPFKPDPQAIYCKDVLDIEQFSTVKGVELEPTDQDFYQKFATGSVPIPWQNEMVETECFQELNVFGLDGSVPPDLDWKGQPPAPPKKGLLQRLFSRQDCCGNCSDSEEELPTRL
Sequence of ERN2, construct: aa490-end (Q76MJ5 490-926, looked up): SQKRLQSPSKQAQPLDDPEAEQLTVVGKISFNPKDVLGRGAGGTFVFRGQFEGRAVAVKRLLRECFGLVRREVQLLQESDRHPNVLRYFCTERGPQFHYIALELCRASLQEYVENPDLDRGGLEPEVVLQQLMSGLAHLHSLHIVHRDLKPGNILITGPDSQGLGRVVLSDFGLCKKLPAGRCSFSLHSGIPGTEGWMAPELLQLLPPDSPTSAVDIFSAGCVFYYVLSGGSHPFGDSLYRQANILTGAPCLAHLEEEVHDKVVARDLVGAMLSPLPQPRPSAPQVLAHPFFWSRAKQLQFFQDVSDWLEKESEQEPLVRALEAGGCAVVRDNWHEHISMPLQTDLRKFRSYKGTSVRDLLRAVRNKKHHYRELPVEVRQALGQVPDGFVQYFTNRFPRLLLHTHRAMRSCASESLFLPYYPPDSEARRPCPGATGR

GRK6, construct: Full length (from UniProt P43250)
relative phosphorylation
Conditions	at +1	at +2	at +3	at +4	at -1	at -2	at -3	at -4	at -5
A fixed	0.673	1.15	0.704	0.819	0.727	0.898	0.871	1.07	1.01
D fixed	1.13	1.55	2.51	2.04	1.42	0.993	1.73	1.37	1.41
E fixed	2.44	1.11	3.21	1.96	1.35	1.02	1.66	1.44	1.31
F fixed	1.1	0.983	0.866	0.826	0.903	1.19	0.803	0.781	1.03
G fixed	0.61	0.867	0.716	0.91	0.601	0.761	0.793	0.935	0.932
H fixed	0.721	0.978	0.758	0.914	1.35	0.895	0.92	1.01	0.988
I fixed	1.44	1.17	0.665	0.78	0.817	0.848	0.778	0.951	1.06
K fixed	0.654	0.7	0.59	0.796	0.854	0.878	0.806	0.955	0.873
L fixed	1.11	0.765	0.695	0.764	1.1	1.88	0.914	0.98	0.879
M fixed	1.25	0.954	0.78	0.946	0.948	1.09	0.852	0.953	0.882
N fixed	0.771	0.893	0.726	0.864	1.29	1.02	1.08	1.03	0.988
P fixed	0.36	0.512	0.631	1.16	0.692	0.599	0.716	0.88	0.864
Q fixed	1.03	0.763	0.653	0.852	0.82	0.87	0.899	0.887	0.775
R fixed	0.736	0.811	0.696	0.626	0.942	1.2	1.59	1	0.928
V fixed	1.24	1.43	0.821	0.763	0.947	0.766	0.713	0.844	1.06
W fixed	0.794	1.16	0.991	1.12	0.745	1.23	0.937	0.997	1.01
Y fixed	0.944	1.19	0.985	0.858	1.5	0.863	0.93	0.922	0.999
pThr fixed	2.88	1.34	1.58	3.36	0.96	1.16	2.9	1.6	1.52
pTyr fixed	3.28	1.43	1.67	2.06	1.5	1.51	1.82	1.82	1.7

ERN2, construct: aa490-end (from UniProt Q76MJ5)
relative phosphorylation
Conditions	at +1	at +2	at +3	at +4	at -1	at -2	at -3	at -4	at -5
A fixed	0.889	0.315	0.399	0.712	1.08	0.826	0.865	0.986	0.969
D fixed	0.292	0.208	0.22	0.365	0.7	0.969	0.947	0.892	0.961
E fixed	0.428	0.217	0.165	0.347	1.19	1.29	1.02	0.918	0.87
F fixed	0.683	0.733	1.24	0.849	0.953	0.865	0.676	0.677	0.695
G fixed	1.16	0.332	0.407	0.844	0.758	1.11	1.32	1.04	1.01
H fixed	0.924	0.767	1.27	1.08	1.6	1.08	1.17	1.17	1.24
I fixed	0.78	1.09	1.22	1.04	0.459	0.672	0.792	0.732	0.796
K fixed	2.19	2.21	1.39	1.94	0.955	1.43	1.12	1.53	1.6
L fixed	0.702	1.39	1.38	0.935	0.58	0.592	0.66	0.693	0.691
M fixed	1.24	1.32	0.95	0.996	0.951	0.814	0.861	0.751	0.704
N fixed	0.997	0.507	0.441	0.763	0.986	1.1	1.21	1.38	1.17
P fixed	0.247	0.305	0.346	1.15	1.47	1.37	1.09	0.914	0.915
Q fixed	1.44	0.787	0.591	1.04	1.42	1.25	1.27	1.14	1.14
R fixed	2.95	2.57	3.56	1.81	0.94	1.5	1.42	1.57	1.78
V fixed	0.809	1.16	0.669	0.86	0.927	0.732	0.776	0.759	0.704
W fixed	0.572	0.72	1.45	1.21	0.798	0.651	0.875	0.994	0.893
Y fixed	0.694	2.36	1.3	1.04	1.23	0.769	0.941	0.858	0.858
pThr fixed	0.298	0.212	0.237	0.355	0.355	0.648	0.798	0.779	0.732
pTyr fixed	0.286	0.235	0.283	0.296	0.692	0.694	0.652	0.474	0.562
